Measurements taken from article PMC11262690.

Target: Nematocida displodere mechanosensitive ion channel of small conductance 2, MscS2Δ2–29 (His14-SUMO tag cleaved) (Nematocida displodere)
Assay: cryo-EM structure; single-particle, 0.33 mg/mL in DDM, 200 kV Glacios; consensus refinement without symmetry 8.3 Å, focused refinement of two channels 7.7 Å

Nematocida displodere mechanosensitive ion channel of small conductance 2, MscS2Δ2–29 (His14-SUMO tag cleaved) (domain or fragment)
heptameric channels in the superstructure: 6 | stoichiometry N: 7
